Results: PMC7954794, “Protein context shapes the specificity of SH3 domain-mediated interactions in vivo” (Nature Communications, 2021)

Tests used:
Type in all cases: cell-based, Saccharomyces cerevisiae
BOI1 = assay: DHFR-PCA on solid medium, bait BOI1 (Fig. 1B); details: bait BOI1, label = prey; for medrep (log2 median colony size normalized to plate background, PCA score): 3-8 replicates
From the text: (§1) Supplement 41467_2021_21873_MOESM8_ESM.xlsx, sheet "Fig1B" | column: medsize; medrep; Ratio; Score

BEM1-2 = assay: DHFR-PCA on solid medium, bait BEM1-2 (Fig. 1B); details: bait BEM1-2, label = prey; for medrep (log2 median colony size normalized to plate background, PCA score): 2-8 replicates; for Ratio (SH3-deleted/WT medrep): only significant differences showed, PPIs completely lost have a ratio of 0.1 and the gained PPIs 2.5
From the text: as §1

BEM1-1 = assay: DHFR-PCA on solid medium, bait BEM1-1 (Fig. 1B); details: bait BEM1-1, label = prey; for medrep (log2 median colony size normalized to plate background, PCA score): 2-8 replicates
From the text: as §1

BOI2 = assay: DHFR-PCA on solid medium, bait BOI2 (Fig. 1B); details: bait BOI2, label = prey; for medrep (log2 median colony size normalized to plate background, PCA score): 3-8 replicates
From the text: as §1

ABP1 = assay: DHFR-PCA on solid medium, bait ABP1 (Fig. 1B); details: bait ABP1, label = prey; for medrep (log2 median colony size normalized to plate background, PCA score): 2-4 replicates
From the text: as §1

BBC1 = assay: DHFR-PCA on solid medium, bait BBC1 (Fig. 1B); details: bait BBC1, label = prey
From the text: as §1

[1] = test system: 575 putative partners (preys) of 22 WT SH3-containing proteins; assay: DHFR-PCA on solid medium, WT and SH3-deleted baits (Fig. 1B); set-up: key to Score: 0: SH3-independent; 1: SH3-dependent PPIs; 2: SH3-inhibited PPIs; details: for medrep (log2 median colony size normalized to plate background, PCA score): label = prey
Summary of the method: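 In S. cerevisiae, 22 SH3-containing baits fused genomically to DHFR F[1,2], either WT or with each SH3 replaced via CRISPR by a poly-Gly/Ser linker, screened against 575 DHFR F[3] preys plus 40 negative controls in 1536 arrays, preys duplicated at randomized positions.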

[2] = only significant differences showed, PPIs completely lost have a ratio of 0.1 and the gained PPIs 2.5

Row | Molecule | medrep (log2 median colony size normalized to plate background, PCA score) (BOI1) | Ratio (SH3-deleted/WT medrep) (BOI1; [2]) | medrep (log2 median colony size normalized to plate background, PCA score) (BEM1-2) | Ratio (SH3-deleted/WT medrep) (BEM1-2) | medrep (log2 median colony size normalized to plate background, PCA score) (BEM1-1) | medrep (log2 median colony size normalized to plate background, PCA score) (BOI2) | medrep (log2 median colony size normalized to plate background, PCA score) (ABP1) | Ratio (SH3-deleted/WT medrep) (ABP1; [2]) | Ratio (SH3-deleted/WT medrep) (BEM1-1; [2]) | medrep (log2 median colony size normalized to plate background, PCA score) (BBC1; 2-4 replicates) | Ratio (SH3-deleted/WT medrep) (BBC1; [2]) | medrep (log2 median colony size normalized to plate background, PCA score) ([1]; bait SLA1-2, DHFR-PCA, Replicates 4 (2 for YCR009C, YDR388W)) | Score ([1]; bait SLA1-2, label = prey) | Ratio (SH3-deleted/WT medrep) ([1]; bait SLA1-2, label = prey, only significant differences shown, PPIs completely lost have a ratio of 0.1, gained PPIs 2.5) | medrep (log2 median colony size normalized to plate background, PCA score) ([1]; bait SLA1-3, DHFR-PCA, Replicates 4 (2 for YCR009C, YDR388W, YIL033C)) | Score ([1]; bait SLA1-3, label = prey) | Ratio (SH3-deleted/WT medrep) (BOI2; [2])
1 | YDR379W (protein, UniProt Q06407 1-1009, looked up) Rho-type GTPase-activating …: MSADPINDQSSLCVRCNKSIASSQVYELESKKWHDQCFTCYKCDKKLNADSDFLVLDIGTLICYDCSDKCTNCGDKIDDTAIILPSSNEAYCSNCFRCCRCSNRIKNLKYAKTKRGLCCMDCHEKLLRKKQLLLENQTKNSSKEDFPIKLPERSVKRPLSPTRINGKSDVSTNNTAISKNLVSSNEDQQLTPQVLVSQERDESSLNDNNDNDNSKDREETSSHARTVSIDDILNSTLEHDSNSIEEQSLVDNEDYINKMGEDVTYRLLKPQRANRDSIVVKDPRIPNSNSNANRFFSIYDKEETDKDDTDNKENEIIVNTPRNSTDKITSPLNSPMAVQMNEEVEPPHGLALTLSEATKENNKSSQGIQTSTSKSMNHVSPITRTDTVEMKTSTSSSTLRLSDNGSFSRPQTADNLLPHKKVAPSPNKKLSRSFSLKSKNFVHNLKSKTSEMLDPKHPHHSTSIQESDTHSGWGVSSTHTNIRKSKAKKNPVSRGQSDSTIYNTLPQHGNFTVPEFNHKKAQSSLGSISKKQNSNDTATNRRINGSFTSSSSGHHIAMFRTPPLESGPLFKRPSLSSESAHHRSSSLQTSRSTNALLEDDSTKVDATDESATSLEKDFYFTELTLRKLKLDVRELEGTKKKLLQDVENLRLAKERLLNDVDNLTREKDKQSASSRESLEQKENIATSITVKSPSSNSDRKGSISNASPKPRFWKIFSSAKDHQVGDLESQQRSPNSSSGGTTNIAQKEISSPKLIRVHDELPSPGKVPLSPSPKRLDYTPDGSHLYGSSLQARCAYEKSTVPIIIRCCIDRIEKDDIGLNMEGLYRKSGSQTLVEEIENEFAQNNSLHSDTLSPKLNALLNQDIHAVASVLKRYLRKLPDPVLSFSIYDALIDLVRNNQLIERLPLNNDKFLDSPQKVTIYEMVLKSLLEIFKILPVEHQEVLKVLAAHIGKVRRCSERNLMNLHNLSLVFAPSLIHDFDGEKDIVDMKERNYIVEFILGNYRDIFKQA | 1.407 | 2.5 | 2.957 | 0.1 | 2.957 | 2.382 | – | – | – | – | – | – | – | – | – | – | –
2 | YBR200W (protein, UniProt P29366 1-551, looked up) Bud emergence protein 1: MLKNFKLSKRDSNGSKGRITSADISTPSHDNGSVIKHIKTVPVRYLSSSSTPVKSQRDSSPKNRHNSKDITSPEKVIKAKYSYQAQTSKELSFMEGEFFYVSGDEKDWYKASNPSTGKEGVVPKTYFEVFDRTKPSSVNGSNSSSRKVTNDSLNMGSLYAIVLYDFKAEKADELTTYVGENLFICAHHNCEWFIAKPIGRLGGPGLVPVGFVSIIDIATGYATGNDVIEDIKSVNLPTVQEWKSNIARYKASNISLGSVEQQQQQSITKPQNKSAKLVDGELLVKASVESFGLEDEKYWFLVCCELSNGKTRQLKRYYQDFYDLQVQLLDAFPAEAGKLRDAGGQWSKRIMPYIPGPVPYVTNSITKKRKEDLNIYVADLVNLPDYISRSEMVHSLFVVLNNGFDREFERDENQNNIKTLQENDTATFATASQTSNFASTNQDNTLTGEDLKLNKKLSDLSLSGSKQAPAQSTSGLKTTKIKFYYKDDIFALMLKGDTTYKELRSKIAPRIDTDNFKLQTKLFDGSGEEIKTDSQVSNIIQAKLKISVHDI | 3.166 | – | 1.887 | 0.4478 | 4.2138 | 4.509 | 1.73 | 2.5 | – | – | – | – | – | – | – | – | –
3 | YAL041W (protein, UniProt P11433 1-854, looked up) Cell division control protein …: MAIQTRFASGTSLSDLKPKPSATSISIPMQNVMNKPVTEQDSLFHICANIRKRLEVLPQLKPFLQLAYQSSEVLSERQSLLLSQKQHQELLKSNGANRDSSDLAPTLRSSSISTATSLMSMEGISYTNSNPSATPNMEDTLLTFSMGILPITMDCDPVTQLSQLFQQGAPLCILFNSVKPQFKLPVIASDDLKVCKKSIYDFILGCKKHFAFNDEELFTISDVFANSTSQLVKVLEVVETLMNSSPTIFPSKSKTQQIMNAENQHRHQPQQSSKKHNEYVKIIKEFVATERKYVHDLEILDKYRQQLLDSNLITSEELYMLFPNLGDAIDFQRRFLISLEINALVEPSKQRIGALFMHSKHFFKLYEPWSIGQNAAIEFLSSTLHKMRVDESQRFIINNKLELQSFLYKPVQRLCRYPLLVKELLAESSDDNNTKELEAALDISKNIARSINENQRRTENHQVVKKLYGRVVNWKGYRISKFGELLYFDKVFISTTNSSSEPEREFEVYLFEKIIILFSEVVTKKSASSLILKKKSSTSASISASNITDNNGSPHHSYHKRHSNSSSSNNIHLSSSSAAAIIHSSTNSSDNNSNNSSSSSLFKLSANEPKLDLRGRIMIMNLNQIIPQNNRSLNITWESIKEQGNFLLKFKNEETRDNWSSCLQQLIHDLKNEQFKARHHSSTSTTSSTAKSSSMMSPTTTMNTPNHHNSRQTHDSMASFSSSHMKRVSDVLPKRRTTSSSFESEIKSISENFKNSIPESSILFRISYNNNSNNTSSSEIFTLLVEKVWNFDDLIMAINSKISNTHNNNISPITKIKYQDEDGDFVVLGSDEDWNVAKEMLAENNEKFLNIRLY | 2.673 | – | 4.862 | – | 4.862 | 3.947 | – | – | – | – | – | – | – | – | – | – | –
4 | YBL085W (protein, UniProt P38041 1-980, looked up) BEM1-interacting protein 1: MSLEGNTLGKGAKSFPLYIAVNQYSKRMEDELNMKPGDKIKVITDDGEYNDGWYYGRNLRTKEEGLYPAVFTKRIAIEKPENLHKSPTQESGNSGVKYGNLNDSASNIGKVSSHQQENRYTSLKSTMSDIDKALEELRSGSVEQEVSKSPTRVPEVSTPQLQDEQTLIQEKTRNEENTTHDSLFSSTADLNLSSESLKNISKSNISTKSLEPSSESVRQLDLKMAKSWSPEEVTDYFSLVGFDQSTCNKFKEHQVSGKILLELELEHLKELEINSFGIRFQIFKEIRNIKSAIDSSSNKLDADYSTFAFENQAAQLMPAATVNRDEIQQQISSKCNKLSSESSDRKSSSVTTELQRPSSVVVNPNFKLHDPAEQILDMTEVPNLFADKDIFESPGRAPKPPSYPSPVQPPQSPSFNNRYTNNNARFPPQTTYPPKNKNPTVYSNGLIPNSSTSSDNSTGKFKFPAMNGHDSNSRKTTLTSATIPSINTVNTDESLPAISNISSNATSHHPNRNSVVYNNHKRTESGSSFVDLFNRISMLSPVKSSFDEEETKQPSKASRAVFDSARRKSSYGHSRDASLSEMKKHRRNSSILSFFSSKSQSNPTSPTKQTFTIDPAKMTSHSRSQSNSYSHARSQSYSHSRKHSLVTSPLKTSLSPINSKSNIALAHSETPTSSNNKEAVSQPSEGKHKHKHKHKSKHKHKNSSSKDGSSEEKSKKKLFSSTKESFVGSKEFKRSPSELTQKSTKSILPRSNAKKQQTSAFTEGIRSITAKESMQTADCSGWMSKKGTGAMGTWKQRFFTLHGTRLSYFTNTNDEKERGLIDITAHRVLPASDDDRLISLYAASLGKGKYCFKLVPPQPGSKKGLTFTEPRVHYFAVENKSEMKAWLSAIIKATIDIDTSVPVISSYATPTIPLSKAQTLLEEARLQTQLRDAEEEEGRDQFGWDDTQNKRNSNYPIEQDQFETSDYLESSAFEYPGGRL | 1.7279 | – | 2.78 | 0.1 | 1.5623 | 3.465 | – | – | 0.5621 | – | – | – | – | – | – | – | –
5 | YKR048C (protein, UniProt P25293 1-417, looked up) Nucleosome assembly protein: MSDPIRTKPKSSMQIDNAPTPHNTPASVLNPSYLKNGNPVRAQAQEQDDKIGTINEEDILANQPLLLQSIQDRLGSLVGQDSGYVGGLPKNVKEKLLSLKTLQSELFEVEKEFQVEMFELENKFLQKYKPIWEQRSRIISGQEQPKPEQIAKGQEIVESLNETELLVDEEEKAQNDSEEEQVKGIPSFWLTALENLPIVCDTITDRDAEVLEYLQDIGLEYLTDGRPGFKLLFRFDSSANPFFTNDILCKTYFYQKELGYSGDFIYDHAEGCEISWKDNAHNVTVDLEMRKQRNKTTKQVRTIEKITPIESFFNFFDPPKIQNEDQDEELEEDLEERLALDYSIGEQLKDKLIPRAVDWFTGAALEFEFEEDEEEADEDEDEEEDDDHGLEDDDGESAEEQDDFAGRPEQAPECKQS | – | – | – | – | – | 1.303 | 3.939 | – | – | 1.806 | 0.1 | 1.303 | 1 | 0.1 | 1.303 | 0 | 2.5
